Source: publication PMC11908248 (bioRxiv, 2025)
Each block holds one molecule with its values, some of them ahead of it.

B1: UNC-116-sfGFP-StrepII (natural protein, C. elegans, UniProt P34540 1-815, looked up)
chain: MEPRTDGAECGVQVFCRIRPLNKTEEKNADRFLPKFPSEDSISLGGKVYVFDKVFKPNTTQEQVYKGAAYHIVQDVLSGYNGTVFAYGQTSSGKTHTMEGVIGDNGLSGIIPRIVADIFNHIYSMDENLQFHIKVSYYEIYNEKIRDLLDPEKVNLSIHEDKNRVPYVKGATERFVGGPDEVLQAIEDGKSNRMVAVTNMNEHSSRSHSVFLITVKQEHQTTKKQLTGKLYLVDLAGSEKVSKTGAQGTVLEEAKNINKSLTALGIVISALAEGTKSHVPYRDSKLTRILQESLGGNSRTTVIICASPSHFNEAETKSTLLFGARAKTIKNVVQINEELTAEEWKRRYEKEKEKNTRLAALLQAAALELSRWRAGESVSEVEWVNLSDSAQMAVSEVSGGSTPLMERSIAPAPPMLTSTTGPITDEEKKKYEEERVKLYQQLDEKDDEIQKVSQELEKLRQQVLLQEEALGTMRENEELIREENNRFQKEAEDKQQEGKEMMTALEEIAVNLDVRQAECEKLKRELEVVQEDNQSLEDRMNQATSLLNAHLDECGPKIRHFKEGIYNVIREFNIADIASQNDQLPDHDLLNHVRIGVSKLFSEYSAAKESSTAAEHDAEAKLAADVARVESGQDAGRMKQLLVKDQAAKEIKPLTDRVNMELTTLKNLKKEFMRVLVARCQANQDTEGEDSLSGPAQKQRIQFLENNLDKLTKVHKQLVRDNADLRVELPKMEARLRGREDRIKILETALRDSKQRSQAERKKYQQEVERIKEAVRQRNMRRMNAPQIVKPIRPGQVYTSPSAGMSQGAPNGSNA
B2: UNC-83a^N-term-mScarlet-StrepII (domain or fragment, C. elegans, UniProt Q23064 1-305, looked up)
chain: MDVMDSFSEVEMPNDISSEDHLLKVIESSAEEVDIFLENCSSLYNLILDSLHNLTSKTISCECLDEMTSTLEKSAKKILAERPEAENSVLLRLNTICCAMDQLRVQHNSRMMSGADSDTASSARSSTSSSTGEMRLWLHEVERRLEINEKRIRVEPNLQLLLSDQQALQLEIQHEGQLLVNRLNKQIKDDHDSDSSEEEKRKTCVDAIRKRWHTIYLNSLSLVCRIEELINHQQASEDSESDPDLVGPPIKRARIRTVGHLTASDTEESEADEEDRHSQTETVVTEDDNVLPFAENEYESIMDGR

Columns and labels:
GST-KLC-2 (C. elegans) [1] = target: GST-KLC-2 (C. elegans) (UniProt P46822); assay: mass photometry
GST-KLC-2 (C. elegans), sequence (P46822 whole entry): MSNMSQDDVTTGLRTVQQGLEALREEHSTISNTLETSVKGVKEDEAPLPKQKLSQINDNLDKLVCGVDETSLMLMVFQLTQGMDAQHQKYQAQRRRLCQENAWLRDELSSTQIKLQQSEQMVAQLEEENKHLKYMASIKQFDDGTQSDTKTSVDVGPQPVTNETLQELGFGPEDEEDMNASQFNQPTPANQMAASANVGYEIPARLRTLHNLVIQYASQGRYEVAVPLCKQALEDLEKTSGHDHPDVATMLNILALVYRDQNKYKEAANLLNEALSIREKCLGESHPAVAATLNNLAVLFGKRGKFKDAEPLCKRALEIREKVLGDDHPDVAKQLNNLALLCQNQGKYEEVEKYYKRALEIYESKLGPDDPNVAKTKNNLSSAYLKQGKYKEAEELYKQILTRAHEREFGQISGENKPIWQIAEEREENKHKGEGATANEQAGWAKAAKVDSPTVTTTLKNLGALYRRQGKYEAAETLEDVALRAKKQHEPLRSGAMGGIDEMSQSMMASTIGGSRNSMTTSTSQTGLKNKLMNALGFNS

GST-KLC-2 (C. elegans) [2] = target: GST-KLC-2 (C. elegans) (UniProt P46822); assay: BLI
[3] = target: C. elegans kinesin-1 heterotetramer (UNC-116-sfGFP-StrepII + KLC-2-6xHis) (C. elegans) (UniProt P34540); assay: mass photometry
[4] = target: UNC-116-sfGFP-StrepII (C. elegans) (UniProt P34540); assay: mass photometry
mass photometry = target: the molecule itself; assay: mass photometry
UNC-116-sfGFP-StrepII = target: B1; assay: mass photometry

percent of particles in the peak of the complex (GST-KLC-2 (C. elegans) [1]): 97 % peak | stoichiometry N (UNC-83c monomer per KLC-2 monomer) (GST-KLC-2 (C. elegans) [1]): 1
Molecule: UNC-83c-mScarlet-StrepII (domain or fragment)

Kd (GST-KLC-2 (C. elegans) [2]): > 1000 nM | percent of particles in the peak of the complex [3]: 97 % peak | stoichiometry N (UNC-83a monomer per kinesin-1 tetramer) [3]: 1 | percent of particles in the peak of the complex [4]: 99 % peak | stoichiometry N (UNC-83a monomer per UNC-116 dimer) [4]: 1
Molecule: UNC-83a-mScarlet-StrepII (from UniProt Q23064 1-1041) (domain or fragment)

Molecule: B1
stoichiometry N (mass photometry): 2

Molecule: B2
stoichiometry N (UNC-116-sfGFP-StrepII): 1 UNC-83a^N-term monomer per UNC-116 dimer | stoichiometry N (mass photometry): 2
